Laboratory results reported in patent US20240325557A1 (INNATE PHARMA, published 2024).

Legend:
human Nectin-4 Mutant 7 = molecular target: T1, human Nectin-4 Mutant 7 (human, UniProt Q96NY8 32-510); assay: binding to HEK-293T cells transfected with the Nectin-4 mutant
T1 construct: Expressed on transfected HEK-293T cells; also called S195A/K197T/S199A
T1 chain: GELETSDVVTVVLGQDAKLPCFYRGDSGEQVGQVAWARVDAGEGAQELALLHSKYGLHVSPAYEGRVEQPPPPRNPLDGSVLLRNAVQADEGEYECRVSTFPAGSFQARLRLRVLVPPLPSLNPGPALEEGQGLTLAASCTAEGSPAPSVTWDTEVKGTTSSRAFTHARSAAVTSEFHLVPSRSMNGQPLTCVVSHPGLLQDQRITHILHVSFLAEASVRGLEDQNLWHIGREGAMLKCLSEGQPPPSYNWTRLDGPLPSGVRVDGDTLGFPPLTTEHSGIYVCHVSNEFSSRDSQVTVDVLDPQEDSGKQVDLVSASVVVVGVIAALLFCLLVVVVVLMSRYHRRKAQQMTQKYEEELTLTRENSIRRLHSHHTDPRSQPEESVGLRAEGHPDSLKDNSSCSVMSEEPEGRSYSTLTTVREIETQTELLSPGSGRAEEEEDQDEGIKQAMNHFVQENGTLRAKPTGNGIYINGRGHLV

[1] = molecular target: T2, human Nectin 1 on CHO cells (human, UniProt Q15223 31-517); assay: flow cytometry on CHO cells expressing human Nectin 1
T2 sequence: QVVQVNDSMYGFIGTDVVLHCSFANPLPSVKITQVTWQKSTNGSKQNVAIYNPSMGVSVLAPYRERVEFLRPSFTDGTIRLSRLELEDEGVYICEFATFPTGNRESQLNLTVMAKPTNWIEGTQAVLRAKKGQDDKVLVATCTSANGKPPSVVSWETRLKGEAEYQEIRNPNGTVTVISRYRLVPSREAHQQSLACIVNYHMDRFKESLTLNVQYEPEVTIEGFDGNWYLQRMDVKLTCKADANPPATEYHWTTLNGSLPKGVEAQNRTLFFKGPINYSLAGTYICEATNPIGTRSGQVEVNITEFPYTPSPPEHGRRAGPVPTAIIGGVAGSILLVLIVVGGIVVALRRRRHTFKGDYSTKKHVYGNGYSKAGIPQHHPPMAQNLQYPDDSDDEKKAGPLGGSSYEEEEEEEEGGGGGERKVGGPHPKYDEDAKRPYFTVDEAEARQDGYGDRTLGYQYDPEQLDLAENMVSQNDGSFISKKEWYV
Procedure: Anti-Nectin-4 antibodies were tested by flow cytometry for binding to different CHO cell lines made to express respectively the human Nectin 1, Nectin 2, Nectin 3 and PVR proteins. The expression of each cell lines was controlled and validated with known respectively the anti-human Nectin1, anti-human Nectin2, anti-human Nectin3 and anti-human PVR antibodies. The mature amino acid sequence of the proteins expressed by the cells were as follows:
Nectin 1, Nectin 2, Nectin 3 and PVR proteins as in Example 12. […] Epitope mapping was carried out by assessing competition for binding to Nectin-4 by SPR as in Example 14.

B1: antibody 6A7 (antibody, human IgG1, V domains shown)
VH: QVQLKESGAELVKPGASVKLSCKASGYTFTSYWMHWVKQRPGHGLEWVGEIDPSDSYTNYNQKFKGKATLTIDKSSSTVYMQLSSLTSEDSAVYYCARSGNYDAMDYWGQGTSVTVSA
VL: DIVMTQAAFSSAVTLGTSASISCRSSKSLLHSNGITYLYWYLQKPGQSPHFLIYQMSNLASGVPDRFTSSGSGTDFTLRISRVEAEDVGVYYCAQNLELPWTFGGGTKLEIK
notes: also called CHG1-M-4N4-6A7
B1: no binding (human Nectin-4 Mutant 7); no binding [1].
